Source: paper PMC8828901, “Sox9 is involved in the thyroid differentiation program and is regulated by crosstalk between TSH, TGFβ and thyroid transcription factors”

B1: Sox9 promoter CRE (dsDNA)
DNA 1: CCTCGAGTCTCGTCACCCA
DNA 2: TGGGTGACGAGACTCGAGG
B2: Sox9 promoter Smad site (dsDNA)
DNA 1: CTCGGAACTGTCTGGAAACTTCAG
DNA 2: CTGAAGTTTCCAGACAGTTCCGAG

What was measured:
CREB (TNT-CREB) = CREB (TNT-CREB) (UniProt P16220 1-327); assay: EMSA; specific; 40 mM Hepes pH 7.9, 75 mM KCl, 0.2 mM EDTA, 0.5 mM DTT, 150 ng/ul poly(dI-dC), 5% Ficoll, room temperature, 30 min; 7 ug TNT protein; competitor 100-fold or 50-fold (Methods); details: protein: ivt; chain copies: 2; label: 32P; blunt
Smad3 (TNT-Smad3) = Smad3 (TNT-Smad3) (UniProt P84022 1-425); assay: as above; details: protein: ivt; label: 32P; blunt
Chain of Smad3 (TNT-Smad3) (P84022 whole entry): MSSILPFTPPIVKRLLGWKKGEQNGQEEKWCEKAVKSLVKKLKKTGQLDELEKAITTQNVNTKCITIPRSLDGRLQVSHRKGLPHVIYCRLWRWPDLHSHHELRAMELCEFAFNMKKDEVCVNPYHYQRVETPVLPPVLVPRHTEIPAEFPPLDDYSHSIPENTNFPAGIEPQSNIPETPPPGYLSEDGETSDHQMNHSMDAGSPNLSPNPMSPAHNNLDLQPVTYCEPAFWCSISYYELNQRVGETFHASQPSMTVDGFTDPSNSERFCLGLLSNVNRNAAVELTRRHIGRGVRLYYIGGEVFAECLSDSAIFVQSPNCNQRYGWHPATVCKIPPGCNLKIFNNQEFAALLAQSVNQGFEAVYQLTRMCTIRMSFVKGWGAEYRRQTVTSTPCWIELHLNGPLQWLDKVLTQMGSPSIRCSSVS

Chain of CREB (TNT-CREB) (P16220 whole entry): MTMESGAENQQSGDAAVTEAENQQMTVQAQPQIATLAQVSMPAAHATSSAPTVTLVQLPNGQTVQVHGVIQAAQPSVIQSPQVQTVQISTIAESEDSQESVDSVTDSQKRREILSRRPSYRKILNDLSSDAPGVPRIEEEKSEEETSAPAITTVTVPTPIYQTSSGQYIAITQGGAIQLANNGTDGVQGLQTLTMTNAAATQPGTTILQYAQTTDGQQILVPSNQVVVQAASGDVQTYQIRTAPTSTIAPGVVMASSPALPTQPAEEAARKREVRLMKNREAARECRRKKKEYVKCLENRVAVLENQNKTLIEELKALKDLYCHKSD

Binder	binding result (CREB (TNT-CREB))	binding result (Smad3 (TNT-Smad3))
B1	binds	
B2		binds
